In patent US20100222269A1 (Novo Nordisk, published 2010):
Starred links: 1 amine or outer side, 2 acyl side, 3 side chain; linkers in the order of their positions; H or OH if unused. Positions of bridges follow the written chain, without caps; N, C: chain ends. Non-standard residues stand in square brackets, D forms with d. Groups on a side chain read outwards from the residue. No end group written: not given here. *: point of attachment. C20 diacid = O=C(O)CCCCCCCCCCCCCCCCCCC(=O)*; C18 diacid = O=C(O)CCCCCCCCCCCCCCCCC(=O)*; 17‑carboxyheptanoyl = not defined here; γGlu = O=C(O)[C@H](CCC(=O)[*:2])N[*:1]; AEEA = NCCOCCOCC(=O)O

B1: N-alpha-[(S)-4-carboxy-4-(19-carboxynonadecanoylamino)butyryl]-Glu-Glu-Arg-[Glu1]-pramlintide (1-37) (peptide)
peptide: EERECNTATCATQRLANFLVHSSNNFGPILPPTNVGSNTY
modifications: N-alpha-[(S)-4-carboxy-4-(19-carboxynonadecanoylamino)butyryl] on the N-terminal Glu of the extension; disulfide bridge between the two Cys; C-terminal amide
B2: N-alpha-(17-carboxyheptanoyl)-[Arg18]-pramlintide (1-37) (peptide)
peptide: {17‑carboxyheptanoyl}-KCNTATCATQRLANFLVRSSNNFGPILPPTNVGSNTY-NH2
modifications: disulfide 2-7 (inferred); reading uncertain; also: printed as N-alpha-(17-carboxyheptanoyl)-[Arg18]-pramlintide (1-37)
B3: N-alpha-(17-carboxyheptanoyl)-[Arg18,Leu23,Val26]-pramlintide (2-37) (peptide)
peptide: {17‑carboxyheptanoyl}-CNTATCATQRLANFLVRSSNNLGPVLPPTNVGSNTY-NH2
modifications: disulfide 1-6 (inferred); reading uncertain; also: printed as N-alpha-(17-carboxyheptanoyl)-[Arg18,Leu23,Val26]-pramlintide (2-37)
B4: N-alpha-[(S)-4-carboxy-4-(17-carboxyheptadecanoylamino)butyryl]-[Arg18,Leu23,Val26]-pramlintide (2-37) (peptide)
peptide: CNTATCATQRLANFLVRSSNNLGPVLPPTNVGSNTY
modifications: N-alpha-[(S)-4-carboxy-4-(17-carboxyheptadecanoylamino)butyryl] on the N-terminal Cys2; disulfide bridge between the two Cys; C-terminal amide
B5: N-alpha-(2-{2-[2-(2-{2-[2-((S)-4-Carboxy-4-{4-carboxy-4-[4-carboxy-4-(17-carboxyheptadecanoylamino)butyrylamino]butyrylamino}butyrylamino) … (peptide)
peptide: B4 peptide
modifications: N-alpha-(2-{2-[2-(2-{2-[2-((S)-4-Carboxy-4-{4-carboxy-4-[4-carboxy-4-(17-carboxyheptadecanoylamino)butyrylamino]butyrylamino}butyrylamino) ethoxy}ethoxy]acetylamino)ethoxy}ethoxy]acetyl) on the N-terminal Cys2; disulfide bridge between the two Cys; C-terminal amide
B6: N-alpha-(17-carboxyheptanoyl)-Glu-[Glu1]-pramlintide (1-37) (peptide)
peptide: {17‑carboxyheptanoyl}-EECNTATCATQRLANFLVHSSNNFGPILPPTNVGSNTY-NH2
modifications: disulfide 3-8 (inferred); reading uncertain; also: printed as N-alpha-(17-carboxyheptanoyl)-Glu-[Glu1]-pramlintide (1-37)

Molecular target: Amylin 3(a) receptor (human calcitonin receptor (CTa) with RAMP-3) on BHK570 cells (human, UniProt P30988 25-474)
Assay: cell-based or functional assay

Amylin 3(a) receptor (human calcitonin receptor (CTa) with RAMP-3) on BHK570 cells, sequence (P30988 25-474): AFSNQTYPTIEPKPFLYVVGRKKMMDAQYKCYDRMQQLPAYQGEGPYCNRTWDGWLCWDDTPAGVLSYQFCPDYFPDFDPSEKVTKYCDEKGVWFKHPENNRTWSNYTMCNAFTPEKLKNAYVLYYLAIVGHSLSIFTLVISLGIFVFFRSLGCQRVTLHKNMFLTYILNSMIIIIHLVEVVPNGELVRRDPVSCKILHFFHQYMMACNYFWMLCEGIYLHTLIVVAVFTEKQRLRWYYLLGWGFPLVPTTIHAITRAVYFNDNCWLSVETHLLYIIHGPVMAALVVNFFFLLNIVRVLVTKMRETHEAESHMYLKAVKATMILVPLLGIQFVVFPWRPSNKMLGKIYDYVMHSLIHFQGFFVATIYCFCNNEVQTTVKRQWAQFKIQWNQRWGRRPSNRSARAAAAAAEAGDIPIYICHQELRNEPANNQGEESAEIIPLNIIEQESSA

| Binder | Potency luciferase assay [nM] |
| --- | --- |
| {C20 diacid-γGlu}-CNTATCATQRLANFLVHSSNNFGPILPPTNVGSNTY-NH2 (disulfide 1-6 (inferred)) [N-alpha-[(S)-4-carboxy-4-(19-carboxynonadecanoylamino)butyryl]-pramlintide (2-37)] | 0.1 |
| {C20 diacid}-EKRKCNTATCATQRLANFLVHSSNNFGPILPPTNVGSNTY-NH2 (disulfide 5-10 (inferred)) [N-alpha-(19-carboxynonadecanoyl)-Glu-Lys-Arg-pramlintide (1-37)] | 0.08 |
| {C20 diacid}-E[AEEA]ECQTATCATQRLANFLVRSSQNLGPVLPPTNVGSNTY-NH2 (disulfide 4-9 (inferred)) | 0.4 |
| B1 | 0.3 |
| {C20 diacid-γGlu}-KKCNTATCATQRLANFLVHSSNNFGPILPPTNVGSNTY-NH2 (disulfide 3-8 (inferred)) [N-alpha-[(S)-4-carboxy-4-(19-carboxynonadecanoylamino)butyryl]-Lys-pramlintide (1-37)] | 0.1 |
| B2 | 0.03 |
| KCK([Glu-Glu-Glu-Glu-C20 diacid])TATCATQRLANFLVRSSQNLGPVLPPTNVGSNTY-NH2 (disulfide 2-7 (inferred)) | 0.6 |
| KCK([γGlu-C18 diacid])TATCATQRLANFLVRSSQNLGPVLPPTNVGSNTY-NH2 (disulfide 2-7 (inferred)) | 0.04 |
| KCK([AEEA-AEEA-γGlu-γGlu-γGlu-C18 diacid])TATCATQRLANFLVPSSNNFGPILPPTNVGSNTY-NH2 (disulfide 2-7 (inferred)) | 20 |
| {C20 diacid}-EERECQTATCATQRLANFLVRSSQNLGPVLPPTNVGSNTY-NH2 (disulfide 5-10 (inferred)) [N-alpha-(19-carboxynonadecanoyl)-Glu-Glu-Arg-[Glu1,Gln3,Arg18,Gln21,Leu23,Val26]-pramlintide (1-37)] | 0.09 |
| EERECNTATCATQRLANFLVHSSNNFGPILPPTNVGSNTY-NH2 (disulfide 5-10 (inferred); not fully specified (N-terminus)) [N-alpha-[4-(16-1H-tetrazol-5-yl-hexadecanoylsulfamoyl)-butyryl]-Glu-Glu-Arg-[Glu1]pramlintide (1-37)] | 0.09 |
| B3 | 0.1 |
| K([γGlu-C18 diacid])CGTATCATQRLANFLARSSNNFGPILSPTNVGSNTY-NH2 (disulfide 2-7 (inferred)) | 0.07 |
| KCK([AEEA-AEEA-C18 diacid])TATCATQRLANFLVHSSNNFGPILPPTNVGSNTY-NH2 (disulfide 2-7 (inferred)) | 0.1 |
| {C20 diacid-γGlu}-RKCNTATCATQRLANFLVHSSNNFGPILPPTNVGSNTY-NH2 (disulfide 3-8 (inferred)) [N-alpha-[(S)-4-carboxy-4-(19-carboxynonadecanoylamino)butyryl]-Arg-pramlintide (1-37)] | 0.2 |
| KCK([AEEA-AEEA-γGlu-C18 diacid])TATCATQRLANFLVPSSNNFGPILPPTNVGSNTY-NH2 (disulfide 2-7 (inferred)) | 10 |
| KCK(17‑carboxyheptanoyl)TATCATQRLANFLVRSSNNFGPILPPTNVGSNTY-NH2 (disulfide 2-7 (inferred)) [N-epsilon3-(17-carboxyheptanoyl)-[Lys3,Arg18]-pramlintide (1-37)] | 0.06 |
| KCK(C20 diacid)TATCATQRLANFLVHSSNNFGPILPPTNVGSNTY-NH2 (disulfide 2-7 (inferred)) [N-epsilon3-(19-carboxynonadecanoyl)-[Lys3]-pramlintide (1-37)] | 0.05 |
| KCNTATCATQRLANFLVHSSNNFGK([AEEA-AEEA-γGlu-γGlu-γGlu-γGlu-C18 diacid])ILPPTNVGSNTY-NH2 (disulfide 2-7 (inferred)) | 0.3 |
| {C20 diacid}-EERECNTATCATQRLANFLVHSSNNFGPILPPTNVGSNTY-NH2 (disulfide 5-10 (inferred)) [N-alpha-(19-carboxynonadecanoyl)-Glu-Glu-Arg-[Glu1]-pramlintide (1-37)] | 0.08 |

| Binder | Potency luciferase assay [nM] |
| --- | --- |
| KCK([AEEA-AEEA-γGlu-C20 diacid])TATCATQRLANFLVHSSNNFGPILPPTNVGSNTY-NH2 (disulfide 2-7 (inferred)) | 0.3 |
| KCK(C18 diacid)TATCATQRLANFLVHSSNNFGPILPPTNVGSNTY-NH2 (disulfide 2-7 (inferred)) [N-epsilon3-(17-carboxyheptadecanoyl)-[Lys3]-pramlintide (1-37)] | 0.05 |
| {C18 diacid}-EERECNTATCATQRLANFLVHSSNNFGPILPPTNVGSNTY-NH2 (disulfide 5-10 (inferred)) [N-alpha-(17-carboxyheptadecanoyl)-Glu-Glu-Arg-[Glu1]pramlintide (1-37)] | 0.06 |
| KCK([AEEA-4‑(16-1H-tetrazol-5-yl-hexadecanoylsulfamoyl)butyryl])TATCATQRLANFLVHSSNNFGPILPPTNVGSNTY-NH2 (disulfide 2-7 (inferred)) | 0.1 |
| ECK(17‑carboxyheptanoyl)TATCATQRLANFLVESSNNFGPILPPTNVGSNTY-NH2 (disulfide 2-7 (inferred)) [N-epsilon3-(17-carboxyheptanoyl)-[Glu1,Lys3,Glu18]-pramlintide (1-37)] | 0.03 |
| {C20 diacid}-EEEECQTATCATQRLANFLVRSSQNLGPVLPPTNVGSNTY-NH2 (disulfide 5-10 (inferred)) [N-alpha-(19-carboxynonadecanoyl)-Glu-Glu-Glu-[Glu1,Gln3,Arg18,Gln21,Leu23,Val26]-pramlintide (1-37)] | 2 |
| KCNTATCATQRLANFLVHSSNNFGK([γGlu-C18 diacid])ILPPTNVGSNTY-NH2 (disulfide 2-7 (inferred)) [N-epsilon25-[(S)-4-carboxy-4-(17-carboxyheptadecanoylamino)butyryl]-[Lys25]-pramlintide (1-37)] | 0.09 |
| {C20 diacid}-ERCNTATCATQRLANFLVHSSNNFGPILPPTNVGSNTY-NH2 (disulfide 3-8 (inferred)) [N-alpha-(19-carboxynonadecanoyl)-Glu-[Arg1]-pramlintide (1-37)] | 0.1 |
| {C20 diacid}-EER[AEEA]ECNTATCATQRLANFLVHSSNNFGPILPPTNVGSNTY-NH2 (disulfide 6-11 (inferred)) | 0.4 |
| KCK([AEEA-Glu-Glu-C20 diacid])TATCATQRLANFLVRSSQNLGPVLPPTNVGSNTY-NH2 (disulfide 2-7 (inferred)) | 0.3 |
| KCK([γGlu-C18 diacid])TATCATQRLANFLVPSSNNFGPILPPTNVGSNTY-NH2 (disulfide 2-7 (inferred)) [N-epsilon3-[(S)-4-carboxy-4-(17-carboxyheptadecanoylamino)butyryl]-[Lys3,Pro18]-pramlintide (1-37)] | 0.7 |
| B4 | 0.03 |
| B5 | 0.9 |
| B6 | 0.4 |
| CK([γGlu-4‑(16-1H-tetrazol-5-ylhexadecanoylsulfamoyl)butyryl])TATCATQRLANFLVHSSNNFGPILPPTNVGSNTY-NH2 (disulfide 1-6 (inferred)) | 0.04 |
| EERECNTATCATQRLANFLVHSSNNFGPILPPTNVGSNTY-NH2 (disulfide 5-10 (inferred); not fully specified (N-terminus)) | 2 |
| KCNTATCATQRLANFLVHSSNNFGPILPK(C20 diacid)TNVGSNTY-NH2 (disulfide 2-7 (inferred)) [N-epsilon29-(19-carboxynonadecanoyl)-[Lys29]-pramlintide (1-37)] | 5 |
| {C20 diacid-γGlu}-RRCNTATCATQRLANFLVHSSNNFGPILPPTNVGSNTY-NH2 (disulfide 3-8 (inferred)) [N-alpha-[(S)-4-carboxy-4-(19-carboxynonadecanoylamino)butyryl]-Arg-[Arg1]-pramlintide (1-37)] | 0.1 |
| {C20 diacid-γGlu}-RCNTATCATQRLANFLVHSSNNFGPILPPTNVGSNTY-NH2 (disulfide 2-7 (inferred)) [N-alpha-[(S)-4-carboxy-4-(19-carboxynonadecanoylamino)butyryl]-[Arg1]-pramlintide (1-37)] | 0.04 |
